Target: T1, Human GLP-1R (Arg24-Leu422) fragment (human, UniProt P43220)
T1 construct: GLP-1 receptor, human, residues Arg24-Leu422; N-terminal HA-FLAG-B2-HRV14-3C tags and C-terminal HPC4-HRV14-3C-10x His tags; no 3C cleavage is described; also called detergent solubilized GLP-1R; source: Sf9 insect cells, baculovirus, co-expressed with DNGαs and Gβ1γ2; solubilised in LMNG/CHS, purified as a complex (HPC4 resin, SEC); not shown: HPC4, C-terminal, kept
Test: SEC + other: negative stain EM; Fab7F38 added at an estimated 1:1 ratio to the HPC4-purified GLP-1R–semaglutide–Gs–Nb35 complex, SEC on Superose 6 Increase (20 mM HEPES pH 7.5, 100 mM NaCl, 2 mM MgCl2, 1 μM semaglutide, LMNG/CHS), peak fraction used for single-particle 2D class averages
Details: both partners purified

T1 sequence (P43220 24-422): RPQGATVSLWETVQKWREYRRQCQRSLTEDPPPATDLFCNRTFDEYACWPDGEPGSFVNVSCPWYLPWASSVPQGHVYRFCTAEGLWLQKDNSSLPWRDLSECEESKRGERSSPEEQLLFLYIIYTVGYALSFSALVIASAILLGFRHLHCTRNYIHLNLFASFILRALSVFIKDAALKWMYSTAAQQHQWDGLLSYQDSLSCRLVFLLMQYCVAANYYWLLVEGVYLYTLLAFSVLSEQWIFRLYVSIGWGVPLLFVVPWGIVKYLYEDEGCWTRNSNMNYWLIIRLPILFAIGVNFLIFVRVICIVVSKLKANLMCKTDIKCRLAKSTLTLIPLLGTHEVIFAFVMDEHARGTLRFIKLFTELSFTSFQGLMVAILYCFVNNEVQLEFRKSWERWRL

binding result: binds
B1: Fab7F38 (Fab, V domains shown)
VH: EVQLQQSGPELVKPGASVKMSCKAPGYTFTSYVTHWVKQKPGQGLEWIGYINPYNDSPKYNEKYKAKATLTSDKSSSTVYMELSSLTSEDSAVYYCARIGYFRYDEGGNYALDYWGQGTSVTVSS
VL: QIVLTQSPAIMSASPGEKVTISCSASSSVSYMYWYQQKPGSSPKPWIYRTSKLASGVPVRFSGSGSGTSYSLTISNMEAEDAATYYCQQFHTYPWTFGGGTKLEIK
notes: source: ExpiCHO-S cells, transient transfection, purified (Protein G Sepharose, SEC Superdex 75)

Source: publication PMC7062719, “Full-length human GLP-1 receptor structure without orthosteric ligands” (Nature Communications, 2020)
